The values that follow come from US6656907B1, “Method of treating gastric ulcer by administration of epidermal growth factor” (University Technologies International Inc., priority 1995, dated 2003).

One data set relates to RDEC-E. coli. The experiment in a line: RDEC-E. coli intestinal infection in rabbits, oral EGF. Format: in vivo, New Zealand White rabbits. The protocol: Twenty-eight New Zealand White rabbits (6 wk-old) were studied in 3 groups: 1) Controls (Con, n=9), 2) Infected with 1×10^7 RDEC-E. coli (I, n=10), and 3) Infected-treated with 60 μg oral EGF daily for 10 days, starting 3 days prior to infection (I-EGF, n=9). Animals were assessed daily for weight gain, rectal passage of E. coli, and presence of diarrhea. Seven days post-infection, animals were killed and mucosa obtained from the jejunum (JEJ), ileum (ILE), and proximal colon (PROX) for quantitation of E. coli, and from the jejunum for mucosal enzyme assays.

The next data set has as its system E. coli. The experiment in a line: E. coli translocation across confluent CaCo2 monolayers on Transwell membranes. Format: cell-based, human. The protocol: (§1) Two×10^8 human pathogenic Salmonella typhimurium or E. coli were added to the apical surface of confluent human CaCo2 monolayers grown on Transwell membranes (porosity 3.0 μm). Monolayers received apical EGF (100 μM) or PBS 15 min prior to infection. Each hour post infection (0-7 h), medium under the membrane was replaced and bacterial transepithelial migration rate (CFU/h) was calculated.

Another data set deals with Salmonella typhimurium. The experiment in a line: Salmonella typhimurium translocation across confluent CaCo2 monolayers on Transwell membranes. Format: cell-based, human. The note with it: apical EGF 100 μM 15 min prior to infection. Here is the method:
as §1

Data set [1] can be described thus: Weight gain in healthy rabbits given daily oral EGF. Format: in vivo, New Zealand white rabbits. Here is the method:
EGF was tested for its potential benefits on weight gain. One group of New Zealand white rabbits (6 week old, 500-700 g) received daily oral doses of recombinant human EGF (100 μg/kg body weight) and control animals were given saline only. […] Given the linear aspect of both curves, continued feeding with EGF is likely to produce a steadily increasing. effect on weight gain.

For data set [2], the system named is intestinal brush border membrane nutrient absorption. Nature of the data set: Nutrient uptake into brush border membrane vesicles after jejunal loop treatment. It counts as in vivo, New Zealand White rabbits. The protocol: Subsequent experiments examined the effects of EGF and an inhibitor of the EGF receptor (tyrphostin 51) on intestinal brush border membrane nutrient absorption. Tyrphostin 51is a specific inhibitor of tyrosine kinase, which is a critical element of the EGF intracellular signalling cascade. Studies were performed in New Zealand White rabbits (700-1000 g; approximately 8 weeks of age). Two 10 cm blind jejunal loops separated by a 1 cm segment were tied off starting 5 cm distal to the ligament of Treitz. In separate experiments either EGF (60 ng/ml), EGF+tyrphostin (10 μM), or tyrphostin (10 μM) alone in 1.5 ml of saline vehicle was administered to one of the loops. The other loop received vehicle alone and served as a paired control. After one hour, the loops were removed and the mucosa scraped for preparation of brush border membrane vesicles. Nutrient (D-glucose and L-proline) uptake into brush border membrane vesicles was determined by established techniques. Luminal EGF stimulated a significant increase (p<0.001) in brush border membrane glucose (EGF 16.1±1.0 vs CONTROL 11.5±0.9 nmol/min/mg protein; n=5) and proline (EGF 3.8±0.5 vs CONTROL 2.6±0.3 nmol/min/mg protein; n=5) transport compared to controls. […] Subsequently, a further series of experiments examined the effect of tyrphostin alone on brush border glucose transport. […] Thus, EGF treatment increases nutrient absorption and promotes weight gain. Conversely, tyrphostin treatment may promote a decrease in weight gain or weight loss and therefore may be useful in the treatment of obesity. Tyrphostin treatment may also reduce the intestinal uptake of toxic or adverse substances.

Data set [3] in a line: Stability of lyophilized EGF in drinking water. It counts as physicochemical. The following applies: lyophilized EGF added to drinking water.
Setting [4] is: jejunum mucosa, 7 days after inoculation.

B1: epidermal growth factor (protein, UniProt P01133 23-1207, looked up)
Pro-epidermal growth factor: PQHWSCPEGTLAGNGNSTCVGPAPFLIFSHGNSIFRIDTEGTNYEQLVVDAGVSVIMDFHYNEKRIYWVDLERQLLQRVFLNGSRQERVCNIEKNVSGMAINWINEEVIWSNQQEGIITVTDMKGNNSHILLSALKYPANVAVDPVERFIFWSSEVAGSLYRADLDGVGVKALLETSEKITAVSLDVLDKRLFWIQYNREGSNSLICSCDYDGGSVHISKHPTQHNLFAMSLFGDRIFYSTWKMKTIWIANKHTGKDMVRINLHSSFVPLGELKVVHPLAQPKAEDDTWEPEQKLCKLRKGNCSSTVCGQDLQSHLCMCAEGYALSRDRKYCEDVNECAFWNHGCTLGCKNTPGSYYCTCPVGFVLLPDGKRCHQLVSCPRNVSECSHDCVLTSEGPLCFCPEGSVLERDGKTCSGCSSPDNGGCSQLCVPLSPVSWECDCFPGYDLQLDEKSCAASGPQPFLLFANSQDIRHMHFDGTDYGTLLSQQMGMVYALDHDPVENKIYFAHTALKWIERANMDGSQRERLIEEGVDVPEGLAVDWIGRRFYWTDRGKSLIGRSDLNGKRSKIITKENISQPRGIAVHPMAKRLFWTDTGINPRIESSSLQGLGRLVIASSDLIWPSGITIDFLTDKLYWCDAKQSVIEMANLDGSKRRRLTQNDVGHPFAVAVFEDYVWFSDWAMPSVMRVNKRTGKDRVRLQGSMLKPSSLVVVHPLAKPGADPCLYQNGGCEHICKKRLGTAWCSCREGFMKASDGKTCLALDGHQLLAGGEVDLKNQVTPLDILSKTRVSEDNITESQHMLVAEIMVSDQDDCAPVGCSMYARCISEGEDATCQCLKGFAGDGKLCSDIDECEMGVPVCPPASSKCINTEGGYVCRCSEGYQGDGIHCLDIDECQLGEHSCGENASCTNTEGGYTCMCAGRLSEPGLICPDSTPPPHLREDDHHYSVRNSDSECPLSHDGYCLHDGVCMYIEALDKYACNCVVGYIGERCQYRDLKWWELRHAGHGQQQKVIVVAVCVVVLVMLLLLSLWGAHYYRTQKLLSKNPKNPYEESSRDVRSRRPADTEDGMSSCPQPWFVVIKEHQDLKNGGQPVAGEDGQAADGSMQPTSWRQEPQLCGMGTEQGCWIPVSSDKGSCPQVMERSFHMPSYGTQTLEGGVEKPHSLLSANPLWQQRALDPPHQMELTQ
modifications: Pro-epidermal growth factor
In the case of B1, in the data set on RDEC-E. coli (I-EGF group), the “stool cultures for E. coli” value is reported as “positive”. Further, the animals with diarrhea entry in the data set with RDEC-E. coli (I-EGF group, 4 animals in infected group) is on record as “none”. In addition, in the data set on RDEC-E. coli (I-EGF vs I), the “effect on infection-induced reduced weight gain” value was “prevented”; the “effect on jejunum maltase and sucrase activities” value is on record as “prevented the decrease”. Besides, in the data set with RDEC-E. coli (compared to infected (I)), the “reduction of E. coli colonization in the jejunum, ileum and proximal colon” value is on record as more than 85%. Besides, the “E. Coli ILE” value in the data set on RDEC-E. coli (ileum mucosa, 7 days after inoculation) is reported as 4.88 ± 0.2 Log10 CFU/cm. In addition, the “% bacterial clearance in infected + EGF group, ILE” value with RDEC-E. coli (ileum, vs infected) was found to be 95%. The “Cumulative Weight Gain” value in the data set on RDEC-E. coli (infected rabbits, 60 μg oral EGF daily for 10 days, 7 days after inoculation) worked out at 316 ± 16 grams. Moreover, in the data set with RDEC-E. coli (setting [4]), the “E. Coli JEJ” value came out at 3.10 ± 0.4 Log10 CFU/cm, the “MALT (jejunum maltase activity)” value came to 436 ± 48 u/g and the “SUC (jejunum sucrase activity)” value was 89 ± 19 u/g. In addition, the “% bacterial clearance in infected + EGF group, JEJ” value in the data set with RDEC-E. coli (jejunum, vs infected) was 92%. Moreover, in the data set with RDEC-E. coli (proximal colon mucosa, 7 days after inoculation), the “E. Coli PROX” value is listed as 4.09 ± 0.2 Log10 CFU/cm. In addition, in the data set with RDEC-E. coli (proximal colon, vs infected), the “% bacterial clearance in infected + EGF group, PROX” value amounted to 85%. Also, the “microorganisms adhering to the epithelial surface (scanning electron microscopy)” value in the data set with E. coli (Transwell membrane studies, bacterium not specified) was “significantly higher numbers of microorganisms adhering to the epithelial surface of untreated monolayers”. In the data set on E. coli (apical EGF 100 μM 15 min prior to infection), the “delay of initial E. coli translocation” value was 1 h. In addition, in the data set on E. coli (apical EGF 100 μM, after the initial delay), the “inhibition of rate of E. coli invasion (transepithelial migration rate)” value was more than 95%. In the data set with Salmonella typhimurium, the “translocation of S. typhimurium” value is recorded as “completely abolished”. The “mean cumulative weight gain” value in data set [1] (at 9 days, 100 μg/kg body weight daily oral, n=10, controls 394±16 g) turned out to be 422 ± 27 g. For the same molecule, in data set [1] (vs untreated controls, P 0.002, FIG. 1), the “slope of the linear regression curve of weight gain” value is given as “significantly greater”. For the same molecule, the “brush border membrane proline transport” value in data set [2] (EGF 60 ng/ml luminal, one hour, n=5, control 2.6±0.3) was determined as 3.8±0.5 nmol/min/mg protein. In data set [2] (EGF 60 ng/ml luminal, one hour, n=5, control 11.5±0.9), the “brush border membrane glucose transport” value stood at 16.1±1.0 nmol/min/mg protein. Also, the “glucose absorption in intact tissue” value in data set [2] (luminal EGF, initial experiments) was “increased”. Further, in data set [3], the “stability in drinking water” value was “proven stable”.
